{
  "source": "paper PMC5662751",
  "about": "“Post-transcriptional gene silencing mediated by microRNAs is controlled by nucleoplasmic Sfpq”",
  "target": "T1, Sfpq wild-type (human, UniProt P23246 1-707)",
  "T1 sequence": "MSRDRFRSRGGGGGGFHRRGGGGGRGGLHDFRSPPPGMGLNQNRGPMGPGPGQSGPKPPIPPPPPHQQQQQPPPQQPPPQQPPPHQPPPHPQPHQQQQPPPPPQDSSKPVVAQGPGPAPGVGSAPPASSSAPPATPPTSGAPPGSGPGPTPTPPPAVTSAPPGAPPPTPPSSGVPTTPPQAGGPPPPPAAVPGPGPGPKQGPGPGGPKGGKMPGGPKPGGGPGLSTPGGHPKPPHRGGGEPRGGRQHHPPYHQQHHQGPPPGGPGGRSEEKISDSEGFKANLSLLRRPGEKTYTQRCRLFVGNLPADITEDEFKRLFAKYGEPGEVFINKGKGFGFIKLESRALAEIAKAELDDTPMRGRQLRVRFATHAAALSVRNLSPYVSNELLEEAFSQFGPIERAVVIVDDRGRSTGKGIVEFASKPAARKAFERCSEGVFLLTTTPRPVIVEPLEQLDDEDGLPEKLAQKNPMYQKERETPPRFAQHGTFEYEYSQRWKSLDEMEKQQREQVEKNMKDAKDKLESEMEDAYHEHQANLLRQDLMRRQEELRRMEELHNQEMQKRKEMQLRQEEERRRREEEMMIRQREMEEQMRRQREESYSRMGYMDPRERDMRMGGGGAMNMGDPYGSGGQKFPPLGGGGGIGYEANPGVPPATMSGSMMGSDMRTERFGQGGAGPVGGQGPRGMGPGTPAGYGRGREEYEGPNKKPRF",
  "assay": "UV crosslinking; 100 nM Sfpq; EMSA: 75 mM Hepes pH 7.9, 150 mM NaCl, 75 mM KCl, 0.1 mM EDTA, 5 mM DTT, 5 mM PMSF, 15% glycerol, 15 min, room temperature; AFM: 120 mM NaCl, 24 mM Tris-HCl pH",
  "details": "protein: recombinant, tags: 6xHis (pET15b), chain copies: 2, label: 32P",
  "data": [
    {"binder": "CCCCGCCCCG (ssRNA)", "note": "[Sfpq negative RNA oligo (CCCCG x2)]", "values": [
      {"measurement": "binding result", "result": "no binding"}
    ]},
    {"binder": "CUGUACUGUA (ssRNA)", "note": "[CUGU/CUGUA x2 oligo]", "values": [
      {"measurement": "binding result", "setting": "two copies of CUGUA (contains CUGU)", "result": "binds"}
    ]}
  ]
}
